{"source": "paper doi:10.1101/2022.12.21.521423", "about": "(bioRxiv, 2022)", "binders": {"B1": {"name": "FGF13A ExonS-biotin (peptide)", "peptide": "MAAAIASSLIRQKRQAREREKSNACKCVSSPSKGKTSCDKNKLNVFSRVKLFGSKKRRRRRPE", "modifications": "also: biotin (position not given here)"}}, "key": {"HA-LRRC37B-ECTO": {"target": "HA-LRRC37B-ECTO (human, UniProt Q96QE4 28-905)", "sequence (Q96QE4 28-905)": "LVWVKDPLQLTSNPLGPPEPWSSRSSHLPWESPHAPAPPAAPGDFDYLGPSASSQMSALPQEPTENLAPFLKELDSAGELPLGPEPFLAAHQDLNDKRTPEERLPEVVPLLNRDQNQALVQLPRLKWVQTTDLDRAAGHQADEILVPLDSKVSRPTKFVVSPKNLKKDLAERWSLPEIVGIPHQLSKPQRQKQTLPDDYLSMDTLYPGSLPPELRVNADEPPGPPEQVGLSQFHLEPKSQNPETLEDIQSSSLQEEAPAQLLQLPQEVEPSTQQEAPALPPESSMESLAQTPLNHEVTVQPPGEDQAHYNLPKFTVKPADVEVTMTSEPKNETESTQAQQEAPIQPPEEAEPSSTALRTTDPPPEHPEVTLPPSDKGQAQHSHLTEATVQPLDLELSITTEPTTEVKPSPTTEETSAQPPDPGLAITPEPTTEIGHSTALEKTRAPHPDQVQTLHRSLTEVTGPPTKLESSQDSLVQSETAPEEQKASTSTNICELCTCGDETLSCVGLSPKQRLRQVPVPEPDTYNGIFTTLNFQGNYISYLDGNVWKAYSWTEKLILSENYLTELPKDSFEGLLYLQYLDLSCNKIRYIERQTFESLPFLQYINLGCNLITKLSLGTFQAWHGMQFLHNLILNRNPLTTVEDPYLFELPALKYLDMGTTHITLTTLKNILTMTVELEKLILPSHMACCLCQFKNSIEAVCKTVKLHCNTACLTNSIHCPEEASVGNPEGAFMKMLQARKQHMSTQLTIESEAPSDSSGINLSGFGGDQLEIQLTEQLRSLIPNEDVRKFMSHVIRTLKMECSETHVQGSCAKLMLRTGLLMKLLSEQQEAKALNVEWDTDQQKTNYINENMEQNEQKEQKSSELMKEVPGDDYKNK", "assay": "cell-surface binding assay"}, "HA-LRRC37B-LRR-ECTO": {"target": "HA-LRRC37B-LRR-ECTO (human, UniProt Q96QE4 468-841)", "sequence (Q96QE4 468-841)": "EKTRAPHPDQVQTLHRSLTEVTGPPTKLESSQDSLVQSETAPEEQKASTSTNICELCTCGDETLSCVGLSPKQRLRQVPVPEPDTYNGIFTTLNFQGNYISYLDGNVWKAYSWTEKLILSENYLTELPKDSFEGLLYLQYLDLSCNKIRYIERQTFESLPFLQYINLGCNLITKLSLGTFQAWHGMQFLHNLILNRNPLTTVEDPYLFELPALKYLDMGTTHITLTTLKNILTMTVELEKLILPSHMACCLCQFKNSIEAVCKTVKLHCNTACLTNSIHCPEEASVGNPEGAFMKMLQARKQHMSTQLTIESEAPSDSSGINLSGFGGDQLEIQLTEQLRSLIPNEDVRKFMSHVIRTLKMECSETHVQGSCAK", "assay": "cell-surface binding assay"}}, "data": [{"binder": "B1", "values": [{"measurement": "Kd", "setting": "HA-LRRC37B-ECTO", "result": "2.29 ± 1.04", "unit": "nM"}, {"measurement": "Kd", "setting": "HA-LRRC37B-LRR-ECTO", "result": "1.18 ± 0.718", "unit": "nM"}]}]}
